# Values quoted from earlier work in patent publication EP0259891B1, “[Leu 13] motilin, DNAs coding for same and methods for producing same” (KYOWA HAKKO KOGYO CO., LTD., priority 1986, dated 1995).
# Conditions: 13th amino acid Met oxidised; M. Fujino et al., Chem. Pharm. Bull., 26, 101 (1978)
substance,measurement,value
"motilin: physiologically active peptide occurring in the mammalian blood, composed of 22 amino acid residues, 13th amino acid Met",motilin activity after oxidation of Met to the sulfoxide form,decreased motilin activity
